For experiment [1], the target named is surface nucleolin on human cells (human), P19338. As to the kind of experiment: cell-based or functional assay.
For experiment [2], the target named is surface nucleolin on mouse cells (mouse), P09405. Briefly: cell-based or functional assay.

Bounds are passed on as bounds.

surface nucleolin on human cells (human), P19338, sequence (P19338 2-710): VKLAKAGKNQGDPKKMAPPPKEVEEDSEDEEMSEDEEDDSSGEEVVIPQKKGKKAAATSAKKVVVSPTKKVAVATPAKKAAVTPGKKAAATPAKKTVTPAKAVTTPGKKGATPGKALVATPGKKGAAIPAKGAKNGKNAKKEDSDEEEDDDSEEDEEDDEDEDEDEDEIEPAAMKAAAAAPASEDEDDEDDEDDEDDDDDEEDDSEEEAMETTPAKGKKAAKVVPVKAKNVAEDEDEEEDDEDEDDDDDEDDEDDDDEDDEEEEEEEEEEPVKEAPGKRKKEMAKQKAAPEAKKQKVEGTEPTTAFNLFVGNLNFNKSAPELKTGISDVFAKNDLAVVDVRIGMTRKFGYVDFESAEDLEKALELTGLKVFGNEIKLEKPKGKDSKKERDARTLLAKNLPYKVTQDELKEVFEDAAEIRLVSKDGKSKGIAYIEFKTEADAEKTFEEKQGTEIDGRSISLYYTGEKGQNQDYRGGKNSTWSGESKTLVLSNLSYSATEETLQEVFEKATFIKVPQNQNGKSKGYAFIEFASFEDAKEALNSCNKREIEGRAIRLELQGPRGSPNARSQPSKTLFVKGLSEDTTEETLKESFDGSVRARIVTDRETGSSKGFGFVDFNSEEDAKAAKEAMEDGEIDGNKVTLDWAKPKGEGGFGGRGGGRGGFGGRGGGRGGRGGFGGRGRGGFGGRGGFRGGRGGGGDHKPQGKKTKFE
surface nucleolin on mouse cells (mouse), P09405, sequence (P09405 2-707): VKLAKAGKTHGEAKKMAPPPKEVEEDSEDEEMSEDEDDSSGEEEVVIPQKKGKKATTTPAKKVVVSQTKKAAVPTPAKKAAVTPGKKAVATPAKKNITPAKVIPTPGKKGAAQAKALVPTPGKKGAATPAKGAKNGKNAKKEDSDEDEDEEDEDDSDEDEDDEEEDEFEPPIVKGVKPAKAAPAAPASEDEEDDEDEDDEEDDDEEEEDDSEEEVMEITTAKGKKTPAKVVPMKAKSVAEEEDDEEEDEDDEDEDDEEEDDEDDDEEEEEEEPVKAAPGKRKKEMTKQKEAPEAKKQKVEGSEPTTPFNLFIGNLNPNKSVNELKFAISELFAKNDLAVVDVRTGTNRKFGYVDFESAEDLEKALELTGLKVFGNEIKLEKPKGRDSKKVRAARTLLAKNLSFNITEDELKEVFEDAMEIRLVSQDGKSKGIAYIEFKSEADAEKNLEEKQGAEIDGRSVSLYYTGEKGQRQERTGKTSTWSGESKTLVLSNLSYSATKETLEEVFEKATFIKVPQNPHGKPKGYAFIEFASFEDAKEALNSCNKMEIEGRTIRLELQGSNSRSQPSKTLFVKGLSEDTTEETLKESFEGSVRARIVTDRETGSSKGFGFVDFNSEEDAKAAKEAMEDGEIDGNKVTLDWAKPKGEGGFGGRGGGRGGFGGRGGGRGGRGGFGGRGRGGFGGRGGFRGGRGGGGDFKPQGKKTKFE

B1: hexavalent compound Nucant 7 (peptide)
chain: KAKPGKAKPGKAKPG
peptide: KPR
modifications: not checked
In experiment [1], B1 came in with an ID50 (Inhibitory Dose at 50%) of surface nucleolin activity in HeLa P4 cells of less than 0.1 µM and an inhibition of surface nucleolin activity in HeLa P4 cells at 0.8 µM greater than 95%. The inhibition of TNF-alpha and IL-6 production by murine peritoneal macrophages stimulated by 10, 100 and 1000 ng/ml of LPS, at 10 µM of Nucant 7 in experiment [2] is greater than 95%.

The values are drawn from patent publication US20110065649A1.
